Reference: publication doi:10.1101/2020.08.31.276014 (bioRxiv, 2020)

Molecular target: the molecule itself
Experiment: SDS-PAGE of unboiled samples

B1: unencapsulated (naked) DypB (Rv0799c) purified from E. coli (enzyme)
chain: MAVPAVSPQPILAPLTPAAIFLVATIGADGEATVHDALSKISGLVRAIGFRDPTKHLSVVVSIGSDAWDRLFAGPRPTELHPFVELTGPRHTAPATPGDLLFHIRAETMDVCFELAGRILKSMGDAVTVVDEVHGFRFFDNRDLLGFVDGTENPSGPIAIKATTIGDEDRNFAGSCYVHVQKYVHDMASWESLSVTEQERVIGRTKLDDIELDDNAKPANSHVALNVITDDDGTERKIVRHNMPFGEVGKGEYGTYFIGYSRTPTVTEQMLRNMFLGDPAGNTDRVLDFSTAVTGGLFFSPTIDFLDHPPPLPQAATPTLAAGSLSIGSLKGSPR
stoichiometry N: 4
